Experimental data reported in patent US20220289856A1 (IGM BIOSCIENCES, published 2022).

T1: recombinant human CD123 protein (Sino Biological 10518-H08H-50) (human, UniProt P26951 19-305)
T1 construct: also called IL-3 receptor alpha chain; IL-3Rα
T1 sequence (looked up): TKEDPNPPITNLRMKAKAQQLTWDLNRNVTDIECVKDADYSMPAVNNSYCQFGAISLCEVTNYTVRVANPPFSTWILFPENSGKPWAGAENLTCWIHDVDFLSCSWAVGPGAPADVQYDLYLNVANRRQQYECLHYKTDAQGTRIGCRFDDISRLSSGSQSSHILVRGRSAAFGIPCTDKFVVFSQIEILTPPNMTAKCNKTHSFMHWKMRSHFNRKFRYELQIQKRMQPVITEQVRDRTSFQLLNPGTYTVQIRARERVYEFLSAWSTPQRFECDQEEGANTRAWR

B1: anti-CD123×CD3 IgG #1 (bispecific antibody)
heavy 1: QVQLQQSGAEVKKPGASVKVSCKASGYTFTDYYMKWVKQSHGKSLEWMGDIIPSNGATFYNQKFKGKATLTVDRSTSTAYMELSSLRSEDTAVYYCARSHLLRASWFAYWGQGTLVTVSSASTKGPSVFPLAPSSKSTSGGTAALGCLVKDYFPEPVTVSWNSGALTSGVHTFPAVLQSSGLYSLSSVVTVPSSSLGTQTYICNVNHKPSDTKVDKKVEPKSCDKTHTCPPCPAPPVAGPSVFLFPPKPKDTLMISRTPEVTCVVVDVKHEDPEVKFNWYVDGVEVHNAKTKPREEEYNSTYRVVSVLTVLHQDWLNGKEYKCKVSNKALPAPIEKTISKAKGQPREPQVYTLPPSREEMTKNQVSLTCDVSGFYPSDIAVEWESDGQPENNYKTTPPVLDSDGSFFLYSKLTVDKSRWEQGDVFSCSVMHEALHNHYTQKSLSLSPGK
light: not shown
heavy 2: not shown
notes: Construct described in WO 2017/210443 A1, made by commercial vendors; also called bispecific anti-CD123×CD3 IgG #1; anti-CD123×anti-CD3 BiTE construct
B2: IGM #F-b-J*-H1 (bispecific antibody)
VH: QVQLQESGPGLVKPSQSLSLTCSVTDYSITSGYYWNWIRQFPGNKLEWMGYISYDGSNNYNPSLKNRISITRDTSKNQFFLKLSSVTTEDTATYYCSRGEGFYFDSWGQGTTLTVSS
VL: DIMMSQSPSSLAVSVGEKFTMTCKSSQSLFFGSTQKNYLAWYQQKPGQSPKLLIYWASTRESGVPDRFTGSGSGTDFTLAISSVMPEDLAVYYCQQYYNYPWTFGGGTKLEIK
J-chain: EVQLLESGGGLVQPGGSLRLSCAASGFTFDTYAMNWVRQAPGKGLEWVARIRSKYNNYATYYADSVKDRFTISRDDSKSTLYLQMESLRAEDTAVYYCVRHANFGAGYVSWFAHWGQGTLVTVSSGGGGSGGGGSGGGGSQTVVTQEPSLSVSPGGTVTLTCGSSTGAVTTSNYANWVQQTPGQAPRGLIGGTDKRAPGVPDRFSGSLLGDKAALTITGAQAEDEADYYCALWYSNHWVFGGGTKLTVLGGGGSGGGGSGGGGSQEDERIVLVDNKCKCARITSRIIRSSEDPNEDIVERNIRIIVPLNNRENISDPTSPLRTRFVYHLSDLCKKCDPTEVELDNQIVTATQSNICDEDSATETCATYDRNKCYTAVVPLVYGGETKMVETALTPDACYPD
notes: IgM pentamer with a modified J-chain
B3: anti-CD123×CD3 IgM #1 (bispecific antibody)
heavy: QVQLQQSGAEVKKPGASVKVSCKASGYTFTDYYMKWVKQSHGKSLEWMGDIIPSNGATFYNQKFKGKATLTVDRSTSTAYMELSSLRSEDTAVYYCARSHLLRASWFAYWGQGTLVTVSSGSASAPTLFPLVSCENSPSDTSSVAVGCLAQDFLPDSITFSWKYKNNSDISSTRGFPSVLRGGKYAATSQVLLPSKDVMQGTDEHVVCKVQHPNGNKEKNVPLPVIAELPPKVSVFVPPRDGFFGNPRKSKLICQATGFSPRQIQVSWLREGKQVGSGVTTDQVQAEAKESGPTTYKVTSTLTIKESDWLSQSMFTCRVDHRGLTFQQNASSMCVPDQDTAIRVFAIPPSFASIFLTKSTKLTCLVTDLTTYDSVTISWTRQNGEAVKTHTNISESHPNATFSAVGEASICEDDWNSGERFTCTVTHTDLPSPLKQTISRPKGVALHRPDVYLLPPAREQLNLRESATITCLVTGFSPADVFVQWMQRGQPLSPEKYVTSAPMPEPQAPGRYFAHSILTVSEEEWNTGETYTCVVAHEALPNRVTERTVDKSTGKPTLYNVSLVMSDTAGTCY
light: not shown
chain: not shown
notes: also called Anti-CD123 XCD3 IgM #1
B4: IGM #A-b-J*-H1 (bispecific antibody)
chain 1: EVQLVQSGAEVKKPGESLKISCKGSGYSFTDYYMKWARQMPGKGLEWMGDIIPSNGATFYNQKFKGQVTISADKSISTTYLQWSSLKASDTAMYYCARSHLLRASWFAYWGQGTMVTVSS
chain 2: DIVMTQSPDSLAVSLGERATINCESSQSLLNSGNQKNYLTWYQQKPGQPPKPLIYWASTRESGVPDRFSGSGSGTDFTLTISSLQAEDVAVYYCQNDYSYPYTFGQGTKLEIKR
chain 3: not shown
B5: anti-CD123 IgG #1 (antibody, V domains shown)
VH: QVQLQQSGAEVKKPGASVKVSCKASGYTFTDYYMKWVKQSHGKSLEWMGDIIPSNGATFYNQKFKGKATLTVDRSTSTAYMELSSLRSEDTAVYYCARSHLLRASWFAYWGQGTLVTVSS
VL: DFVMTQSPDSLAVSLGERATINCKSSQSLLNTGNQKNYLTWYQQKPGQPPKLLIYWASTRESGVPDRFTGSGSGTDFTLTISSLQAEDVAVYYCQNDYSYPYTFGGGTKLEIKR
notes: Mono-specific IgG version of anti-CD123 #1; also called mono-specific IgG anti-CD123 construct
B6: anti-CD123 IgG #2 (antibody, V domains shown)
VH: QVQLVQSGAEVKKPGASVKVSCKASGYTFTSYWMNWVRQAPGQGLEWMGRIDPYDSETHYNQKFKDRVTMTVDKSTSTAYMELSSLRSEDTAVYYCARGNWDDYWGQGTTVTVSS
VL: EVVLTQSPATLSLSPGERATLSCRASKSISKDLAWYQQKPGQAPRLLIYSGSTLQSGIPARFSGSGSGTDFTLTISSLEPEDFAVYYCQQHNKYPYTFGGGTKVEIKR
notes: Mono-specific IgG version of anti-CD123 #2; also called mono-specific IgG anti-CD123 construct
B7: IGM #C-b-J*-H1 (bispecific antibody)
VH: QVQLQQPGAELVRPGASVKLSCKASGYTFTSYWMNWVKQRPDQGLEWIGRIDPYDSETHYNQKFKDKAILTVDKSSSTAYMQLSSLTSEDSAVYYCARGNWDDYWGQGTTLTVSS
VL: DVQITQSPSYLAASPGETITINCRASKSISKDLAWYQEKPGKTNKLLIYSGSTLQSGIPSRFSGSGSGTDFTLTISSLEPEDFAMYYCQQHNKYPYTFGGGTKLEIK
J-chain: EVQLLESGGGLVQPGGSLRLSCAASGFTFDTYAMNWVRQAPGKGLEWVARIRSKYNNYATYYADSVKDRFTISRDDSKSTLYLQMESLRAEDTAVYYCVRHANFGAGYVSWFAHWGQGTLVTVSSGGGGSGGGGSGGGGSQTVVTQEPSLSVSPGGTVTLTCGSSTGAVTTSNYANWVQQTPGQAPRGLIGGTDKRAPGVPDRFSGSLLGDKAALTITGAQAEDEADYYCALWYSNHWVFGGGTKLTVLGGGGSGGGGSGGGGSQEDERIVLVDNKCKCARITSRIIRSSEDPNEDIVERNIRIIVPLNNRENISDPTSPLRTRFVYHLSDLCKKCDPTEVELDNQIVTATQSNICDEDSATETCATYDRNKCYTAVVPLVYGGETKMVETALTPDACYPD
B8: IGM #B-b-J*-H1 (bispecific antibody)
VH: QIQLVQSGPELKKPGETVKISCKASGYIFTNYGMNWVKQAPGKSFKWMGWINTYTGESTYSADFKGRFAFSLETSASTAYLHINDLKNEDTATYFCARSGGYDPMDYWGQGTSVTVSS
VL: DIVLTQSPASLAVSLGQRATISCRASESVDNYGNTFMHWYQQKPGQPPKLLIYRASNLESGIPARFSGSGSRTDFTLTINPVEADDVATYYCQQSNEDPPTFGAGTKLELK
J-chain: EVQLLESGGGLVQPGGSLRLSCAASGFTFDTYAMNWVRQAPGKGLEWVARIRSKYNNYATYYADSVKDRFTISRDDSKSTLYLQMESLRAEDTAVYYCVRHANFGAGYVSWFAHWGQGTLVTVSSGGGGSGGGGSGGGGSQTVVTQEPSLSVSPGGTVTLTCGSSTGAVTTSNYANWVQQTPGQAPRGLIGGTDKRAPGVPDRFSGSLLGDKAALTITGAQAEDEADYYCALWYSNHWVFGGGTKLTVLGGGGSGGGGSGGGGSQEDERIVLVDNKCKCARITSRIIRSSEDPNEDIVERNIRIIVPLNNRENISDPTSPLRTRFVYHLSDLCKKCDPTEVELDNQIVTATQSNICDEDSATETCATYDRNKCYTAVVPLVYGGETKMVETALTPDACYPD
B9: anti-CD123×CD3 IgM #2 (bispecific antibody)
heavy: QVQLVQSGAEVKKPGASVKVSCKASGYTFTSYWMNWVRQAPGQGLEWMGRIDPYDSETHYNQKFKDRVTMTVDKSTSTAYMELSSLRSEDTAVYYCARGNWDDYWGQGTTVTVSSGSASAPTLFPLVSCENSPSDTSSVAVGCLAQDFLPDSITFSWKYKNNSDISSTRGFPSVLRGGKYAATSQVLLPSKDVMQGTDEHVVCKVQHPNGNKEKNVPLPVIAELPPKVSVFVPPRDGFFGNPRKSKLICQATGFSPRQIQVSWLREGKQVGSGVTTDQVQAEAKESGPTTYKVTSTLTIKESDWLSQSMFTCRVDHRGLTFQQNASSMCVPDQDTAIRVFAIPPSFASIFLTKSTKLTCLVTDLTTYDSVTISWTRQNGEAVKTHTNISESHPNATFSAVGEASICEDDWNSGERFTCTVTHTDLPSPLKQTISRPKGVALHRPDVYLLPPAREQLNLRESATITCLVTGFSPADVFVQWMQRGQPLSPEKYVTSAPMPEPQAPGRYFAHSILTVSEEEWNTGETYTCVVAHEALPNRVTERTVDKSTGKPTLYNVSLVMSDTAGTCY
light: EVVLTQSPATLSLSPGERATLSCRASKSISKDLAWYQQKPGQAPRLLIYSGSTLQSGIPARFSGSGSGTDFTLTISSLEPEDFAVYYCQQHNKYPYTFGGGTKVEIKRTVAAPSVFIFPPSDEQLKSGTASVVCLLNNFYPREAKVQWKVDNALQSGNSQESVTEQDSKDSTYSLSSTLTLSKADYEKHKVYACEVTHQGLSSPVTKSFNRGEC
chain: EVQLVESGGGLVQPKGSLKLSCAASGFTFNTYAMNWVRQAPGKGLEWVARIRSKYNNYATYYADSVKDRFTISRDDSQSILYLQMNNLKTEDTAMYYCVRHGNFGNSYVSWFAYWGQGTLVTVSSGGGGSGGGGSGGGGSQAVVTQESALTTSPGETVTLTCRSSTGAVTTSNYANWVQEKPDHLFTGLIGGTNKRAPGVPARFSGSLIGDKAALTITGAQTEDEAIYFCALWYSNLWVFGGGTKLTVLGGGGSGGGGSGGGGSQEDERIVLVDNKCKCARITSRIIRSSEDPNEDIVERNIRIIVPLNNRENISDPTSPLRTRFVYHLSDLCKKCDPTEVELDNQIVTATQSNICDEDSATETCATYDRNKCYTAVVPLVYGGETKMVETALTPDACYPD

Columns and labels:
[1] = target: recombinant human CD3ε protein (Acro Biosystems, CDE-H5256-100) (human, UniProt P07766 23-126); test: ELISA on plate-coated recombinant human CD3ε
Procedure: (§1) 96-well white polystyrene ELISA plates (Pierce 15042) were coated with 100 μL per well of 0.5 μg/mL recombinant human CD123 protein (Sino Biological 10518-H08H-50) or recombinant human CD3ε protein (Acro Biosystems, CDE-H5256-100) overnight at 4° C. Plates were then washed 5 times with 0.05% PBS-Tween and blocked with 2% BSA-PBS. After blocking, 100 μL of serial dilutions of CD123 IgM or IgG, standards, and controls were added to the wells and incubated at room temperature for 2 hours. The plates were then washed 10 times and incubated with HRP conjugated mouse anti-human kappa (Southern Biotech, 9230-05. 1:6000 diluted in 2% BSA-PBS) for 30 min. After 10 final washes using 0.05% PBS-Tween, the plates were read out using SuperSignal chemiluminescent substrate (ThermoFisher, 37070). Luminescent data were collected on an EnVision plate reader (Perkin-Elmer) and analyzed with GraphPad Prism using a 4-parameter logistic model.

[2] = target: T1, recombinant human CD123 protein (Sino …); test: ELISA on plate-coated recombinant human CD123, as in Example 2
Procedure: as §1

[3] = target: T2, CD123 on AML cells (Kg-1a, MOLM-13, MV4-11, THP-1, PL21) (UniProt P26951 19-378); test: cell-based or functional assay
[4] = target: T2, CD123 on AML cells (Kg-1a, MOLM-13, …); test: cell-based or functional assay; remark: listed apart in the source
[5] = target: T1, recombinant human CD123 protein (Sino …); test: ELISA on plate-coated recombinant human CD123
Procedure: as §1

Sequence of recombinant human CD3ε protein (Acro Biosystems, CDE-H5256-100) (P07766 23-126 limits assumed): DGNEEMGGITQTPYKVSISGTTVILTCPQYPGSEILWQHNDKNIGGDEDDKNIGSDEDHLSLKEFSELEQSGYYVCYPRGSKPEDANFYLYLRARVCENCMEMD

Row | Binder | binding result [1] | EC50 [2] [nM] | T Cell-Directed Killing EC50 (pM), MV411, Strong Donor T cells [3] [pM] | T Cell-Directed Killing EC50 (pM), MV411, Weak Donor T cells [3] [pM] | T Cell-Directed Killing EC50 (pM), PL21, Strong Donor T cells [3] [pM] | T Cell-Directed Killing EC50 (pM), THP-1, Strong Donor T cells [3] [pM] | binding result [5] | further results
1 | B1 | binds |  |  |  |  |  |  | 
2 | B2 |  | 0.53 | 273 | 1080 | 102 | 66.3 |  | 
3 | B3 | binds |  |  |  |  |  |  | T cell-directed killing of MV4-11 cells (luciferase), EC50 [4]: 0.0136 nM; T cell-directed killing of THP-1 cells (luciferase), EC50 [4]: 0.0111 nM
4 | B4 |  | 0.198 |  |  |  |  |  | 
5 | B5 | no binding |  |  |  |  |  | binds | 
6 | B6 | no binding |  |  |  |  |  | binds | 
7 | B7 |  | 0.354 | 0.1 | 528 | 147 | 104 |  | T Cell-Directed Killing EC50 (pM), THP-1, Weak Donor T cells [3]: 990 pM
8 | B8 |  | 0.298 | 41.2 | 35.3 | 4.9 | 12.9 |  | T Cell-Directed Killing EC50 (pM), PL21, Weak Donor T cells [3]: 227 pM; T Cell-Directed Killing EC50 (pM), THP-1, Weak Donor T cells [3]: 46.2 pM
9 | B9 | binds |  |  |  |  |  | binds | 
